Data taken from PMC7299955, “GTP hydrolysis by Synechocystis IM30 does not decisively affect its membrane remodeling activity” (Scientific Reports, 2020).
Where a chain is given by its changes, count along the chain named. In names and notes the source's numbering stands.

How the values were obtained:
SynIM30 WT [1] = molecular target: T1, SynIM30 WT (Synechocystis sp. PCC 6803, UniProt Q55707); assay: thermal denaturation, CD at […] nm; type: binding; details: 0.5 mM GTP with or without 2.5 mM Mg2+; 3.2 µM protein
T1 construct: gene vipp1; full length, N-terminal His-tag kept (pRSET IM30 WT), E. coli BL21(DE3), Ni-NTA; high molecular mass homo-oligomeric rings
T1 sequence (Q55707 1-267): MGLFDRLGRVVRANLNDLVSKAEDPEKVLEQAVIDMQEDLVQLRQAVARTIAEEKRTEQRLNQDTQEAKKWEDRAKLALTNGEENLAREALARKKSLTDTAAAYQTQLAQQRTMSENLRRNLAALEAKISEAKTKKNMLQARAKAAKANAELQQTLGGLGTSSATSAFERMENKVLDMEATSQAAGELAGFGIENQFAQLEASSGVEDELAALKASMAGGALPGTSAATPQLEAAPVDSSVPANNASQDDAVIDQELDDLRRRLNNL

SynIM30 WT [2] = molecular target: T1, SynIM30 WT; assay: malachite green Pi release; type: biochemical; details: 0.5 mM GMP-PCP, GTP varied, 2.5 mM Mg2+, 37 °C; competitive or allosteric not resolved
Source text: malachite green Pi release on SynIM30 WT | […]

[3] = molecular target: the molecule itself; assay: SEC; Superose 12 10/300 GL column, 20 mM HEPES pH 7.6, 8 °C, elution followed at 280 nm; calibrated against standards of known size
[4] = substrate: Nc1nc2c(ncn2[C@@H]2O[C@H](COP(=O)(O)OP(=O)(O)OP(=O)(O)O)[C@@H](O)[C@H]2O)c(=O)[nH]1; assay: malachite green Pi release, Hill fit; type: biochemical, Synechocystis sp. PCC 6803; details: 2.5 mM Mg2+, 20 mM HEPES, 37 °C, 30 min, Hill coefficient 1.29 ± 0.09

## Nc1nc2c(ncn2[C@@H]2O[C@H](COP(=O)(O)OP(=O)(O)OP(=O)(O)O)[C@@H](O)[C@H]2O)c(=O)[nH]1 [GTP]
SynIM30 WT [1]
  Tm: This suggests that GTP binding affects the structure and stability of IM30 to some extent

## Nc1nc2c(ncn2[C@@H]2O[C@H](COP(=O)(O)OP(=O)(O)CP(=O)(O)O)[C@@H](O)[C@H]2O)c(=O)[nH]1 [GMP-PCP]
SynIM30 WT [2]
  malachite green Pi release: Addition of the non-hydrolyzable GTP analog GMP-PCP

B1: Synechocystis IM30 wild type (inner membrane-associated protein of 30 kDa) (natural protein, Synechocystis sp. PCC 6803, UniProt Q55707 1-267, looked up)
chain: T1 sequence (Q55707 1-267)
notes: IM30 (Vipp1) of the cyanobacterium Synechocystis sp; PCC 6803; Forms high molecular mass homo-oligomers (>300 kDa by SEC); the number of chains in them is not determined here; also called SynIM30; SynIM30 WT; source: E. coli BL21 (DE3), purified (Ni-NTA, Sephadex G25 buffer exchange)
[3]
  binding result: binds
[4]
  Km: 650 ± 140 µM
  kcat: 0.036 ± 0.0055 s⁻¹

B2: SynIM30 FERM_EE (E83A, E84A, F168A, E169A, R170A, M171A) (natural protein, Synechocystis sp. PCC 6803, UniProt Q55707 1-267, looked up)
chain: T1 sequence (Q55707 1-267) with E83A, E84A, F168A, E169A, R170A, M171A
notes: IM30 (Vipp1) of Synechocystis sp; PCC 6803 with six mutations brought into the plasmid of IM30 WT; mainly tetramers in buffers of low ionic strength; also called tetrameric SynIM30 variant; source: E. coli BL21 (DE3), purified (Ni-NTA, Sephadex G25 buffer exchange)
[3]
  stoichiometry N: 4
